Experimental data from patent US20070105796.
Changes are numbered by the printed parent chain. Names may count otherwise.

Molecular target: HSP27 (small heat shock protein 27), P04792
Sequence (P04792 whole entry): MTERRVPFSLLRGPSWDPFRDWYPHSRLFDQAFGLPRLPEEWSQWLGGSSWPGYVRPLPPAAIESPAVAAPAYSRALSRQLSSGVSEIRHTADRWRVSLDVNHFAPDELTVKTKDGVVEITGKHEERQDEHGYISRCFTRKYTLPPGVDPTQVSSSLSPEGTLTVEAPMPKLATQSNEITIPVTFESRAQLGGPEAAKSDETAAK

B1: N-terminal HA-tagged inactive MAPKAPK3 (T201A/T313A) (protein)
chain: MDGETAEEQGGPVPPPVAPGGPGLGGAPGGRREPKKYAVTDDYQLSKQVLGLGVNGKVLECFHRRTGQKCALKLLYDSPKARQEVDHHWQASGGPHIVCILDVYENMHHGKRCLLIIMECMEGGELFSRIQERGDQAFTEREAAEIMRDIGTAIQFLHSHNIAHRDVKPENLLYTSKEKDAVLKLTDFGFAKETTQNALQAPCYTPYYVAPEVLGPEKYDKSCDMWSLGVIMYILLCGFPPFYSNTGQAISPGMKRRIRLGQYGFPNPEWSEVSEDAKQLIRLLLKTDPTERLTITQFMNHPWINQSMVVPQAPLHTARVLQEDKDHWDEVKEEMTSALATMRVDYDQVKIKDLKTSNNRLLNKRRKKQAGSSSASQGCNNQ
kinase activity (immune-complex kinase assay, phosphorylation of HSP27): the kinase activity was observed only in an active MAPKAPK3

B2: GST fusion MAPKAPK3 (N-terminal GST fusion human MAPKAPK3) (protein)
chain: B1 chain with A201T, A313T
kinase activity (phosphorylation of HSP27 with [gamma-32P]ATP, autoradiography): the kinase activity was observed only in an active MAPKAPK3

B3: GST fusion active MAPKAPK3 (T201E/T313E) (protein)
chain: B1 chain with A201E, A313E
kinase activity (phosphorylation of HSP27 with [gamma-32P]ATP, autoradiography): the kinase activity was observed only in an active MAPKAPK3

B4: GST fusion inactive MAPKAPK3 (T201A/T313A) (protein)
chain: B1 chain
kinase activity (phosphorylation of HSP27 with [gamma-32P]ATP, autoradiography): the kinase activity was observed only in an active MAPKAPK3

B5: N-terminal HA-tagged active MAPKAPK3 (T201E/T313E) (protein)
chain: B1 chain with A201E, A313E
kinase activity (immune-complex kinase assay, phosphorylation of HSP27): the kinase activity was observed only in an active MAPKAPK3

B6: N-terminal HA-tagged MAPKAPK3 (protein)
chain: B1 chain with A201T, A313T
kinase activity (immune-complex kinase assay, phosphorylation of HSP27): the kinase activity was observed only in an active MAPKAPK3
